Measured values reported in paper PMC9482650, “Quantitative fragmentomics allow affinity mapping of interactomes” (Nature Communications, 2022).

T1: MPDZ_10, O75970
T1 sequence (O75970 1624-1722, limits assumed, looked up): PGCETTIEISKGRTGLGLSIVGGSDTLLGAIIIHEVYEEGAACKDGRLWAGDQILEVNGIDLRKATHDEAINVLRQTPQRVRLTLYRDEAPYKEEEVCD

T2: TX1BP3, O14907
T2 sequence (O14907 10-122, limits assumed, looked up): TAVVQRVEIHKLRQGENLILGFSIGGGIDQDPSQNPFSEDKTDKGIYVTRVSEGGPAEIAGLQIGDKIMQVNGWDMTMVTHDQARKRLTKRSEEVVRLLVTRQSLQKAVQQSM

T3: MPP2, Q14168
T3 sequence (Q14168 180-250, limits assumed, looked up): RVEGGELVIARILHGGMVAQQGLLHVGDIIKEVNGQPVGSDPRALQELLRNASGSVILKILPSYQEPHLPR

T4: LIN7A, O14910
T4 sequence (O14910 103-200, limits assumed, looked up): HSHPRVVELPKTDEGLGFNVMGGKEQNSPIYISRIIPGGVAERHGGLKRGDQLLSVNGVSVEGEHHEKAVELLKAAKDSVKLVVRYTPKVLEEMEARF

T5: PCLO, Q9Y6V0
T5 sequence (Q9Y6V0 4491-4600, limits assumed, looked up): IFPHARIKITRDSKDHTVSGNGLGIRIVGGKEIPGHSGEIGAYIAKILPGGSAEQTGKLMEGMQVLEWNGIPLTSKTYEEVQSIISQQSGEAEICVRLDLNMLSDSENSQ

T6: RADIL, Q96JH8
T6 sequence (Q96JH8 971-1071, limits assumed, looked up): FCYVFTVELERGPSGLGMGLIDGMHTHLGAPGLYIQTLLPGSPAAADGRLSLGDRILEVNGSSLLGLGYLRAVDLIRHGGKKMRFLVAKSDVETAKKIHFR

T7: DFNB31_1, Q9P202
T7 sequence (Q9P202 135-233, limits assumed, looked up): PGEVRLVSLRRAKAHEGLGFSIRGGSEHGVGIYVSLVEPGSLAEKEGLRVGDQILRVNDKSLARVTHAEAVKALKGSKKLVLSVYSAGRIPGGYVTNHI

T8: NHERF3_4, Q5T2W1
T8 sequence (Q5T2W1 373-468, limits assumed, looked up): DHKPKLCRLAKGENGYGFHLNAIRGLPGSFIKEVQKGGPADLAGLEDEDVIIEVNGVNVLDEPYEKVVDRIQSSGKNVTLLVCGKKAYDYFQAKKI

T9: HTRA4, P83105
T9 sequence (P83105 378-476, limits assumed, looked up): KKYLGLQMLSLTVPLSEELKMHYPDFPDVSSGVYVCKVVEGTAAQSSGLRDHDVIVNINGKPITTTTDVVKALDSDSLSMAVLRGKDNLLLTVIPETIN

T10: LNX2_2, Q8N448
T10 sequence (Q8N448 334-432, limits assumed, looked up): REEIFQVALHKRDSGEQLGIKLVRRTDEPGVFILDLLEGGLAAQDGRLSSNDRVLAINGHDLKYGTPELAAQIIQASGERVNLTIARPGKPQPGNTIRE

T11: ARHGEF11, O15085
T11 sequence (O15085 42-136, limits assumed, looked up): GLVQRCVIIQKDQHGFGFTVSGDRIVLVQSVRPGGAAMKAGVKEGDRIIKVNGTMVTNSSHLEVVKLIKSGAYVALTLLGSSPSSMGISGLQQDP

T12: GRIP1_7, Q9Y3R0
T12 sequence (Q9Y3R0 999-1096, limits assumed, looked up): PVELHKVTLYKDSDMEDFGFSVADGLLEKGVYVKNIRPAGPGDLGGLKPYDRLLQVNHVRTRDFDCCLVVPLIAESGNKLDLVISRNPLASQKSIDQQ

B1: NLGN2, Q8NFZ4 (peptide)
chain: LPHPHSTTRV
B2: TRPC5, Q9UL62 (peptide)
chain: GQEEQVTTRL

Biological target: T1, MPDZ_10, O75970
Assay: holdup assay
Parameters: key: below the threshold = too weak to quantify, mostly under pKd 3.1 to 4
Conditions: plain residues with an end cap or a label only (N-terminal biotin on a linker: ado-ado)

Row | pKd | Binder
1 | 3.62 | B1
2 | below the threshold | B2

Biological target: T2, TX1BP3, O14907
Assay: holdup assay
Parameters: key: below the threshold = too weak to quantify, mostly under pKd 3.1 to 4
Conditions: plain residues with an end cap or a label only (N-terminal biotin on a linker: ado-ado)

Row | pKd | Binder
3 | 3.79 | B1
4 | 3.69 | B2

Biological target: T3, MPP2, Q14168
Assay: holdup assay
Parameters: key: below the threshold = too weak to quantify, mostly under pKd 3.1 to 4
Conditions: plain residues with an end cap or a label only (N-terminal biotin on a linker: ado-ado)

Row | pKd | Binder
5 | below the threshold | B1
6 | below the threshold | B2

Biological target: T4, LIN7A, O14910
Assay: holdup assay
Parameters: key: below the threshold = too weak to quantify, mostly under pKd 3.1 to 4
Conditions: plain residues with an end cap or a label only (N-terminal biotin on a linker: ado-ado)

Row | pKd | Binder
7 | below the threshold | B1
8 | below the threshold | B2

Biological target: T5, PCLO, Q9Y6V0
Assay: holdup assay
Parameters: key: below the threshold = too weak to quantify, mostly under pKd 3.1 to 4
Conditions: plain residues with an end cap or a label only (N-terminal biotin on a linker: ado-ado)

Row | pKd | Binder
9 | below the threshold | B1
10 | below the threshold | B2

Biological target: LNX1_3, Q8TBB1
Sequence (Q8TBB1 500-596): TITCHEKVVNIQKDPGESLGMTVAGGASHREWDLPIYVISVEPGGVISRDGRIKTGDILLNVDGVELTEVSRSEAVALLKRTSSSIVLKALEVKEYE
Assay: holdup assay
Parameters: key: below the threshold = too weak to quantify, mostly under pKd 3.1 to 4
Conditions: plain residues with an end cap or a label only (N-terminal biotin on a linker: ado-ado)

Row | pKd | Binder
11 | below the threshold | B1
12 | below the threshold | B2

Biological target: T6, RADIL, Q96JH8
Assay: holdup assay
Parameters: key: below the threshold = too weak to quantify, mostly under pKd 3.1 to 4
Conditions: plain residues with an end cap or a label only (N-terminal biotin on a linker: ado-ado)

Row | pKd | Binder
13 | 3.87 | B1
14 | below the threshold | B2

Biological target: MAGI1_1, Q96QZ7
Sequence (Q96QZ7 1-106): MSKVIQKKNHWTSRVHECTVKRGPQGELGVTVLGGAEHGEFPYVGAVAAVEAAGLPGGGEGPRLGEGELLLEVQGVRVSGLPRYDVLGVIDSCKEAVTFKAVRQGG
Assay: holdup assay
Parameters: key: below the threshold = too weak to quantify, mostly under pKd 3.1 to 4
Conditions: plain residues with an end cap or a label only (N-terminal biotin on a linker: ado-ado)

Row | pKd | Binder
15 | below the threshold | B1
16 | below the threshold | B2

Biological target: T7, DFNB31_1, Q9P202
Assay: holdup assay
Parameters: key: below the threshold = too weak to quantify, mostly under pKd 3.1 to 4
Conditions: plain residues with an end cap or a label only (N-terminal biotin on a linker: ado-ado)

Row | pKd | Binder
17 | 4.13 | B1
18 | 4.42 | B2

Biological target: GOPC, Q9HD26
Assay: holdup assay
Parameters: key: below the threshold = too weak to quantify, mostly under pKd 3.1 to 4
Conditions: plain residues with an end cap or a label only (N-terminal biotin on a linker: ado-ado)

Row | pKd | Binder
19 | 4.28 | B1
20 | 4.83 | B2

Biological target: FRMPD2_2, Q68DX3
Sequence (Q68DX3 944-1038): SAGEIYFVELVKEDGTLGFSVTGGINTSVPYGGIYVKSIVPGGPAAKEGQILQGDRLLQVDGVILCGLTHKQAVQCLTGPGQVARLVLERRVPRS
Assay: holdup assay
Parameters: key: below the threshold = too weak to quantify, mostly under pKd 3.1 to 4
Conditions: plain residues with an end cap or a label only (N-terminal biotin on a linker: ado-ado)

Row | pKd | Binder
21 | 3.59 | B1
22 | below the threshold | B2

Biological target: MAGI3_2, Q5TCQ9
Sequence (Q5TCQ9 398-503): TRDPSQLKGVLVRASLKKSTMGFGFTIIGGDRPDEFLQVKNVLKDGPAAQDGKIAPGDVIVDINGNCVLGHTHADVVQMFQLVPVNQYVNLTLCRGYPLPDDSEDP
Assay: holdup assay
Parameters: key: below the threshold = too weak to quantify, mostly under pKd 3.1 to 4
Conditions: plain residues with an end cap or a label only (N-terminal biotin on a linker: ado-ado)

Row | pKd | Binder
23 | 5.12 | B1
24 | below the threshold | B2

Biological target: Inadl_5, Q8NI35
Sequence (Q8NI35 673-780): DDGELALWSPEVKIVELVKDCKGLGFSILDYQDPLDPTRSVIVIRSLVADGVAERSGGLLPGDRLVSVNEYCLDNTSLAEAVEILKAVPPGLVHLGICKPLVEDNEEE
Assay: holdup assay
Parameters: key: below the threshold = too weak to quantify, mostly under pKd 3.1 to 4
Conditions: plain residues with an end cap or a label only (N-terminal biotin on a linker: ado-ado)

Row | pKd | Binder
25 | below the threshold | B1
26 | below the threshold | B2

Biological target: T8, NHERF3_4, Q5T2W1
Assay: holdup assay
Parameters: key: below the threshold = too weak to quantify, mostly under pKd 3.1 to 4
Conditions: plain residues with an end cap or a label only (N-terminal biotin on a linker: ado-ado)

Row | pKd | Binder
27 | below the threshold | B1
28 | 5.33 | B2

Biological target: Inadl_9, Q8NI35
Sequence (Q8NI35 1530-1615): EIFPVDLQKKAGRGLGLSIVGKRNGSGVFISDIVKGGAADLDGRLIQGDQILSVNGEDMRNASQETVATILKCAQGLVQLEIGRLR
Assay: holdup assay
Parameters: key: below the threshold = too weak to quantify, mostly under pKd 3.1 to 4
Conditions: plain residues with an end cap or a label only (N-terminal biotin on a linker: ado-ado)

Row | pKd | Binder
29 | below the threshold | B1
30 | below the threshold | B2

Biological target: T9, HTRA4, P83105
Assay: holdup assay
Parameters: key: below the threshold = too weak to quantify, mostly under pKd 3.1 to 4
Conditions: plain residues with an end cap or a label only (N-terminal biotin on a linker: ado-ado)

Row | pKd | Binder
31 | 3.97 | B1
32 | below the threshold | B2

Biological target: IL16_3, Q14005
Sequence (Q14005 1107-1207): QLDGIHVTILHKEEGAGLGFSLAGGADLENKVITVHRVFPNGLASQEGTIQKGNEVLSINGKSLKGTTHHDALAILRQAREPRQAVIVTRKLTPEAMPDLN
Assay: holdup assay
Parameters: key: below the threshold = too weak to quantify, mostly under pKd 3.1 to 4
Conditions: plain residues with an end cap or a label only (N-terminal biotin on a linker: ado-ado)

Row | pKd | Binder
33 | below the threshold | B1
34 | below the threshold | B2

Biological target: T10, LNX2_2, Q8N448
Assay: holdup assay
Parameters: key: below the threshold = too weak to quantify, mostly under pKd 3.1 to 4
Conditions: plain residues with an end cap or a label only (N-terminal biotin on a linker: ado-ado)

Row | pKd | Binder
35 | 3.51 | B1
36 | below the threshold | B2

Biological target: TJP1_2, Q07157
Sequence (Q07157 181-274): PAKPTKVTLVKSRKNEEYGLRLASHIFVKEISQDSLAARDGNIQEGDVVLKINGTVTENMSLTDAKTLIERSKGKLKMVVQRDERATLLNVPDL
Assay: holdup assay
Parameters: key: below the threshold = too weak to quantify, mostly under pKd 3.1 to 4
Conditions: plain residues with an end cap or a label only (N-terminal biotin on a linker: ado-ado)

Row | pKd | Binder
37 | below the threshold | B1
38 | below the threshold | B2

Biological target: T11, ARHGEF11, O15085
Assay: holdup assay
Parameters: key: below the threshold = too weak to quantify, mostly under pKd 3.1 to 4
Conditions: plain residues with an end cap or a label only (N-terminal biotin on a linker: ado-ado)

Row | pKd | Binder
39 | 3.96 | B1
40 | 4.37 | B2

Biological target: FRMPD2_1, Q68DX3
Sequence (Q68DX3 770-861): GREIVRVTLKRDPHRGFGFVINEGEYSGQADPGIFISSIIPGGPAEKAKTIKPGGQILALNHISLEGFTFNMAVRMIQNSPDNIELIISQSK
Assay: holdup assay
Parameters: key: below the threshold = too weak to quantify, mostly under pKd 3.1 to 4
Conditions: plain residues with an end cap or a label only (N-terminal biotin on a linker: ado-ado)

Row | pKd | Binder
41 | below the threshold | B1
42 | below the threshold | B2

Biological target: Inadl_10, Q8NI35
Sequence (Q8NI35 1673-1763): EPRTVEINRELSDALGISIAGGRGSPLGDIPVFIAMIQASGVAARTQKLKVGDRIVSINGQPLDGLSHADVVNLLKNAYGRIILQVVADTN
Assay: holdup assay
Parameters: key: below the threshold = too weak to quantify, mostly under pKd 3.1 to 4
Conditions: plain residues with an end cap or a label only (N-terminal biotin on a linker: ado-ado)

Row | pKd | Binder
43 | below the threshold | B1
44 | below the threshold | B2

Biological target: T12, GRIP1_7, Q9Y3R0
Assay: holdup assay
Parameters: key: below the threshold = too weak to quantify, mostly under pKd 3.1 to 4
Conditions: plain residues with an end cap or a label only (N-terminal biotin on a linker: ado-ado)

Row | pKd | Binder
45 | below the threshold | B1
46 | below the threshold | B2

Biological target: TJP2_1, Q9UDY2
Sequence (Q9UDY2 24-128): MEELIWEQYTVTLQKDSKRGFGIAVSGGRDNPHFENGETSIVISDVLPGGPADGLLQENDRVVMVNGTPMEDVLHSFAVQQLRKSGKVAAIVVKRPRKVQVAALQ
Assay: holdup assay
Parameters: key: below the threshold = too weak to quantify, mostly under pKd 3.1 to 4
Conditions: plain residues with an end cap or a label only (N-terminal biotin on a linker: ado-ado)

Row | pKd | Binder
47 | 3.97 | B1
48 | below the threshold | B2

Biological target: MAGI1_2, Q96QZ7
Sequence (Q96QZ7 456-580): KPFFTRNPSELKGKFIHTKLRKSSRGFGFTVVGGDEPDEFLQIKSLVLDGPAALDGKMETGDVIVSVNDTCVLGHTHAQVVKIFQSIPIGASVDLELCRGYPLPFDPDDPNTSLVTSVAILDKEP
Assay: holdup assay
Parameters: key: below the threshold = too weak to quantify, mostly under pKd 3.1 to 4
Conditions: plain residues with an end cap or a label only (N-terminal biotin on a linker: ado-ado)

Row | pKd | Binder
49 | 4.13 | B1
50 | below the threshold | B2
